Assay results reported in patent publication US20240424125A1.

Experiments:
[1] = target: human FRα on cells (human) (UniProt P15328); experiment: flow cytometry on JEG-3 cells (endogenous FRα), negative control; parameters: unit not given here
[2] = target: human FRα on cells (human) (UniProt P15328); experiment: flow cytometry on IGROV-1 cells (endogenous FRα), negative control; parameters: unit not given here

human FRα on cells (human), sequence (P15328 25-234 limits assumed): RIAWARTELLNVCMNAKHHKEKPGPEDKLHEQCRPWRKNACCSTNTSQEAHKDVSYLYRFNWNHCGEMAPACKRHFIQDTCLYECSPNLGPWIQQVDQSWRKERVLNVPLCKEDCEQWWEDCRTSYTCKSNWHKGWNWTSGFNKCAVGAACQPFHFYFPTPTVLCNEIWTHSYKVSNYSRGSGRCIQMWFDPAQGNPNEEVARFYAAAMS

Human IgG (antibody)
Bmax [1]: 144
Bmax [2]: 208
